The source of these data is publication PMC9490035, “Unexpected structures formed by the kinase RET C634R mutant extracellular domain suggest potential oncogenic mechanisms in MEN2A” (The Journal of Biological Chemistry, 2022).

Assay [1] deals with GDF15/GFRAL complex (Homo sapiens) (UniProt Q99988). The note with it: cited from earlier work.
The target in assay [2] is Fc-GDF15/GFRAL complex (formed beforehand) (human) (UniProt Q99988). Nature of the assay: BLI; Fc-GDF15 (15 uM) immobilised on anti-hIgG Fc capture biosensors, saturated with GFRAL (3 uM), then RET^C634R 0.3-42 uM; saturation signals fitted to a sigmoidal model.
Assay [3] concerns the target RET^C634R extracellular domain dimer (human RET residues 1-635 with C634R, C86R and C216S) (human) (UniProt P07949). Nature of the assay: SEC-MALS; Superdex 200 10/300 GL, 0.25 ml/min, RT, 20 mM Hepes pH 7.5, 100 mM NaCl, 1 mM CaCl2.
The target in assay [4] is T1, WT RET extracellular domain (human RET residues 1-635) (human, UniProt P07949 29-635, glycosylated (near-native glycans)).
T1 construct: signal peptide in the construct; human RET extracellular domain, residues 1-635; TEV site before the His8-Flag tags; also called RET^WT; RET^WT ECD; source: HEK293T, transient expression, secreted; purified (Ni-NTA, anti-Flag)
Nature of the assay: native gel or EMSA; Blue Native PAGE; Fc-GDF15 dimer 2 uM + GFRAL 4 uM for 15 min (with or without thrombin), then RET^WT monomer 4 uM or RET^C634R dimer 2 uM; RET + copurified GDNF/GFRα1 at 1:1; 30 min at RT; run at 100 V, 4 °C; also after 5 min heating at 50-85 °C for melting curves. The conditions noted are these: both partners purified.

T1 sequence (P07949 29-635): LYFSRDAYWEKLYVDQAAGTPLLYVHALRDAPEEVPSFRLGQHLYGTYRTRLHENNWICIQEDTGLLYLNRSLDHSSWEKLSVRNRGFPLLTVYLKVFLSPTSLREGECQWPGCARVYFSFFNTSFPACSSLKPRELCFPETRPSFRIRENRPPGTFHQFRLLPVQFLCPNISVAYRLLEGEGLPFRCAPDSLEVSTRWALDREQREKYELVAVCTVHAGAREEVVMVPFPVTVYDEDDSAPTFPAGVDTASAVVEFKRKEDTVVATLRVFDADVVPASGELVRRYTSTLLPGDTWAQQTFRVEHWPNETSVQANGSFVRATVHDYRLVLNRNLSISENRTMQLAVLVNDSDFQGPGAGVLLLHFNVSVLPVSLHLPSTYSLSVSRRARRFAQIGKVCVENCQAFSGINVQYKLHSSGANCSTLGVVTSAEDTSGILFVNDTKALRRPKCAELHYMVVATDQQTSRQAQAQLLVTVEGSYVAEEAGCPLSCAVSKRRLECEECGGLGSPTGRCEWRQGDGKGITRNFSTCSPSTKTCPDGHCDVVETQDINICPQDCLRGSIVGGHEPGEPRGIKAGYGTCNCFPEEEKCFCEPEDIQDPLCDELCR

As for RET ECD (from UniProt P07949), in assay [1], the Kd is 3.2 µM.

In turn, “RET^C634R extracellular domain dimer (human RET residues 1-635 with C634R, C86R and C216S) (from UniProt P07949 29-635) (domain or fragment)” yielded a Kd in assay [2] of 8.5 µM. Also, in assay [3], the stoichiometry N turned out to be 2.

B1: GDF15/GFRAL complex with the Fc removed by thrombin (formed beforehand) (complex, human)
chain 1: ARARNGDHCPLGPGRCCRLHTVRASLEDLGWADWVLSPREVQVTMCIGACPSQFRAANMHAQIKTSLHRLKPDTVPAPCCVPASYNPMVLIQKTDTGVSLQTYDDLLAKDCHCI
chain 2: SQTNNCTYLREQCLRDANGCKHAWRVMEDACNDSDPGDPCKMRNSSYCNLSIQYLVESNFQFKECLCTDDFYCTVNKLLGKKCINKSDNVKEDKFKWNLTTRSHHGFKGMWSCLEVAEACVGDVVCNAQLASYLKACSANGNPCDLKQCQAAIRFFYQNIPFNIAQMLAFCDCAQSDIPCQQSKEALHSKTCAVNMVPPPTCLSVIRSCQNDELCRRHYRTFQSKCWQRVTRKCHEDENCISTLSKQDLTCSGSDDCKAAYIDILGTVLQVQCTCRTITQSEESLCKIFQHMLHRKSCFNYPTLSNVKGMALYTRKHANKITLTGFHSPFNGE
notes: human GDF15, residues 195-308; human GFRAL, residues 19-351; as m4; not shown: modified Fc, N-terminal, cleaved; copies: 2 + 2
Regarding B1, the binding result in assay [4] was “binds”.
